The test system of the series is β-galactosidase. Put plainly: β-galactosidase activity assay with ONPG substrate. The format is biochemical. The note with it: after dithioerythritol treatment and Biogel A5M chromatography. The method, then: C. To 1.8 ml of a 35.3 mg/ml solution of the antiHIgG was added 60 μl (10 mg/ml DMF) of m-maleimidobenzoic acid NHS ester and the mixture allowed to stand at room temperature for 30 min, followed by the addition of 0.18 ml of 1 M sodium acetate, pH 5. The reaction mixture was then dialyzed 2×500 ml (degassed) 20 mM sodium acetate, pH 5, 0.15 M NaCl for 1 hr at room temperature. To a solution of 5 ml of β-galactosidase (1.47 mg/ml) was added 0.2 ml of 0.5 M phosphate, pH 7, followed by 2 ml of the above reaction product at a concentration of 31.1 mg/ml and the mixture incubated at room temperature for 4 hrs. The reaction was terminated by the addition of 0.2 ml of 10 mM cysteine-HCl and incubating for 0.5 hr to yield a final volume of 7.4 ml. […] Fractions 24 to 33 were collected to provide a volume of 50 ml with an optical density at 280 nm of 0.540 and a molar ratio of antibody to enzyme of about 5:1. […] Assaying for the enzyme employed a 10 μl fraction dissolved in 0.5 ml PBS, N3, Mg, RSA combined with 0.1 ml 20 mM ONPG in 0.4 ml buffer and measuring the rate at 37° at 420 nm for the interval between 10 to 20 secs after addition of the substrate.
D. The above procedure was repeated as follows. […] The assays were performed at 37° C., reading at 420 nm employing an assay solution of 10 μl of the conjugate, 0.9 ml PBS, N3, Mg, RSA and 0.1 ml of substrate (20 mM ONPG).

The results in this text go back to patent publication US4287300A, “Charge effects in enzyme immunoassays” (priority 1979, dated 1981).

Take “β-galactosidase: β-galactosidase (Boehringer 150797), treated with dithioerythritol and chromatographed on Biogel A5M”: the enzyme activity was 477 u/mg of protein.
